This is an account of results in patent US20250066436A1.

Data set [1] deals with PAR1^WT/β-11 (PAR1 with the GFP 11th β-strand fused to its C-terminus) (UniProt P25116). Description: cell-based or functional assay.
For data set [2], the target named is endothelial cell protein C receptor (EPCR) (human) (UniProt Q9UNN8). Description: cell-based or functional assay.
Data set [3] has the same target. Description: binding to EPCR on endothelial cells; reference is wild type.
Data set [4] has the same target. Description: binding to EPCR; reference is the natural ligands of EPCR.
Data set [5] has the same target. Description: binding to EPCR on endothelial cells; reference is wild type APC.
Data set [6] has the same target. Description: flow cytometry, fluorescently labelled protease on endothelial cells. For orientation: Flow cytometry measures light scatter and fluorescence of single cells or particles in a stream.
The target is the same in data set [7]. Description: flow cytometry, labelled active-site blocked protease on endothelial cells.
The target in data set [8] is AP-PAR1 (PAR1 with an N-terminal alkaline phosphatase tag) (UniProt P25116).
For data set [9], the target named is T1, AP-PAR1 (PAR1 with an N-terminal alkaline phosphatase tag), P25116.
T1 chain: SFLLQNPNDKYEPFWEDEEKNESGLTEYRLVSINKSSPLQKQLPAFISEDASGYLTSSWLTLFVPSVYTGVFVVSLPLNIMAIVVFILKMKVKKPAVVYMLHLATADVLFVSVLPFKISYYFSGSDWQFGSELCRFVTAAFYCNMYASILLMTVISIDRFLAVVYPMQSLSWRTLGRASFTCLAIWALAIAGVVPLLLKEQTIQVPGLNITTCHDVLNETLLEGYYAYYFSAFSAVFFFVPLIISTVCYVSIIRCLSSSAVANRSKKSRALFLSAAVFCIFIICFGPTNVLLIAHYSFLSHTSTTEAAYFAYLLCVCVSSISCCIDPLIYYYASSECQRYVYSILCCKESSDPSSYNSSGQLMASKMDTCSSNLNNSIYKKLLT

Sequence of UniProt Q9UNN8 (Q9UNN8 18-238): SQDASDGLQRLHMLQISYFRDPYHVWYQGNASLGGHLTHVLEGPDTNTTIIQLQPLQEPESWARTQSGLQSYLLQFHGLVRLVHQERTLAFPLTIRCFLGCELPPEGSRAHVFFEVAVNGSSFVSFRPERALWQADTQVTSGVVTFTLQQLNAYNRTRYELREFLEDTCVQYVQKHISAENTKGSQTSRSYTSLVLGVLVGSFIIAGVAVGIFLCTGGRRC

Turning to “APC^CIDRα1.4 (truncated human activated protein C fused to the PfEMP1 CIDRα1.4 HB3var03 domain), proteolytically active (enzyme)”, in data set [1], the β-arrestin 2 recruitment to PAR1 (GFP formation by flow cytometry) was > 2 fold. In data set [2], this molecule displayed a β-arrestin 2 recruitment to activated PAR1 in HEK 293T β-arrestin 2 reporter cells of 3 fold. The fold increase in affinity compared to wild type in data set [3] was > 100 fold. Further, in data set [4], the fold higher affinity than its natural ligands is < 100 fold. Moreover, the fold enhanced affinity compared to wild type APC in data set [5] was < 100 fold.

“P-APC^CIDR (APC^CIDRα1.4 active-site blocked with biotinylated PPACK) (enzyme)” came in with a lowest concentration tested at which bound protease was present in data set [6] of 0.1 nM. For the same molecule, in data set [7], the concentration at which cell binding was still clearly visible was < 0.3 nM.

As for “wild type activated protein C (APC), proteolytically active”, the “PAR1 proteolysis (release of alkaline phosphatase tag into the supernatant)” value in data set [8] is “APC^CIDR cleaves PAR1 with comparable activity as APC”.

B1: APC^CIDRα1.4 (truncated human activated protein C fused to the PfEMP1 CIDRα1.4 HB3var03 domain), proteolytically active (protein)
chain: MRLAVGALLVCAVLGLCLPDCGVECKNETCTPKTVIYPDCGKNEKYEPPGDAKNTEINVINSGDKEGYIFEKLSEFCTNENNENGKNYEQWKCYYDNKKNNNKCKMEINIANSKLKNKITSFDEFFDFWVRKLLIDTIKWETELTYCINNTDVTDCNKCNKNCVCFDKWVKQKEDEWTNIMKLFTNKHDIPKKYYLNINDLFDSFFFQVIYKFNEGEAKWNELKENLKKQIASSKANNGTKDSEAAIKVLFNHIKEIATICKDNNTNEGCGDQCLVLPLEHPCASLCCGHGTCIDGIGSFSCDCRSGWEGRFCQREVSFLNCSLDNGGCTHYCLEEVGWRRCSCAPGYKLGDDLLQCHPAVKFPCGRPWKRMEKKRSHLKRDTEDQEDQVDPRLIDGKMTRRGDSPWQVVLLDSKKKLACGAVLIHPSWVLTAAHCMDESKKLLVRLGEYDLRRWEKWELDLDIKEVFVHPNYSKSTTDNDIALLHLAQPATLSQTIVPICLPDSGLAERELNQAGQETLVTGWGYHSSREKEAKRNRTFVLNFIKIPVVPHNECSEVMSNMVSENMLCAGILGDRQDACEGDSGGPMVASFHGTWFLVGLVSWGEGCGLLHNYGVYTKVSRYLDWIHGHIRDKEAPQKSWAP
For the molecule B1, the “PAR1 proteolysis (release of alkaline phosphatase tag into the supernatant)” value in data set [9] is “APC^CIDR cleaves PAR1 with comparable activity as APC”.
